Read-outs that look alike come from different tables or passages of the source.
Key:
[1] = molecular target: T1, human IL-1β (human, UniProt P01584 117-269); assay: BIAcore kinetic analysis of the dAb
T1 construct: also called hIL-1β; rhIL-1 beta

[2] = molecular target: T1, human IL-1β; assay: cell-based or functional assay
[3] = molecular target: T2, human IL-1α (human, UniProt P01583 113-271); assay: cell-based or functional assay
T2 sequence (looked up): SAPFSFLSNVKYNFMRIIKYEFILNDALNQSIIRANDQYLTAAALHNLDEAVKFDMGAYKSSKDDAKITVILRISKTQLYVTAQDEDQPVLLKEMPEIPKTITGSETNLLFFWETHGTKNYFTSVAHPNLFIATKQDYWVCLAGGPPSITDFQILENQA

[4] = molecular target: T2, human IL-1α; assay: BIAcore kinetic analysis of the dAb
[5] = molecular target: T2, human IL-1α; assay: BIAcore, IL-1α coated chip, dAb flowed over
[6] = molecular target: T2, human IL-1α; assay: BIAcore kinetic analysis of the dAb; remark: listed apart in the source
[7] = molecular target: T1, human IL-1β; assay: cell-based or functional assay; remark: listed apart in the source
[8] = molecular target: T1, human IL-1β; assay: BIAcore kinetic analysis of the dAb; remark: listed apart in the source
[9] = molecular target: T2, human IL-1α; assay: method not given
[10] = molecular target: T2, human IL-1α; assay: BIAcore kinetic analysis of the dAb; remark: listed apart in the source
[11] = molecular target: T1, human IL-1β; assay: cell-based or functional assay; remark: listed apart in the source
[12] = molecular target: T2, human IL-1α; assay: cell-based or functional assay; remark: listed apart in the source
[13] = molecular target: T2, human IL-1α; assay: cell-based or functional assay; remark: listed apart in the source
[14] = molecular target: T2, human IL-1α; assay: BIAcore, purified dAb
[15] = molecular target: T2, human IL-1α; assay: cell-based or functional assay; remark: listed apart in the source
[16] = molecular target: T2, human IL-1α; assay: cell-based or functional assay; remark: listed apart in the source

B1: ABT2-13 (other)
VH: EVQLLESGGGLVQPGGSLRLSCAASGFTFRDYVMYWARQAPGKGLEWVSRIDPMGSSTYYADSVKGRFTISRDNSKNTLYLQMNSLRAEDTAVYYCAKPEGNFDYWGQGTLVTVSS
notes: dAb, VH, to IL-1β; also called dAb ABT2-13
- Kd [1]: 930 nM
- koff [1]: 0.075 s⁻¹
- kon [1]: 81000 M⁻¹ s⁻¹
- MRC5 ND10 [2]: 100 nM
- MRC5 ND50 [2]: 800 nM

B2: ABT1-122 (other)
VL: DIQMTQSPSSLSASVGDRVTITCRASQPIWTELNWYQQKPGKAPKLLIYGSSSLQSGVPSRFSGSGSGTDFTLTISSLQPEDFATYYCQQFAYFPATFGQGTKVEIKR
notes: dAb, Vκ, to IL-1α
- MRC5 ND10 [3]: 9 nM
- MRC5 ND50 [3]: 50 nM
- Kd [4]: 42 nM
- koff [4]: 0.28 s⁻¹
- kon [4]: 6.6e+06 M⁻¹ s⁻¹
- Kd [5]: 40 to 86 nM

B3: ABT1-98 (other)
VH: EVQLLESGGGLVQPGGSLRLSCAASGFTFDGYIMSWVRQAPGKGLEWVSTISPLGSVTYYADSVKGRFTISRDNSKNTLYLQMNSLRAEDTAVYYCAKKGPWFDYWGQGTLVTVSS
notes: dAb, VH, to IL-1α; also called dAb ABT1-98
- MRC5 ND10 [3]: 10 nM
- MRC5 ND50 [3]: 30 nM
- Kd [6]: 13 nM
- koff [6]: 0.027 s⁻¹
- kon [6]: 2e+06 M⁻¹ s⁻¹

B4: ABT2-65 (other)
VH: EVQLLESGGGLVQPGGSLRLSCAASGFTFEDYQMGWVRQAPGKGLEWVSSISAMGNRTYYADSVKGRFTISRDDSKNTLYLQMNSLRAEDTAVYYCAKNLVRTQSKMWMFDYWGQGTLVTVSS
notes: dAb, VH, to IL-1β; also called dAb ABT2-65
- MRC5 ND50 [7]: 266 nM
- MRC5 ND10 [2]: 100 nM
- MRC5 ND50 [2]: 266 nM
- Kd [8]: 97 nM
- koff [8]: 0.02 s⁻¹
- kon [8]: 250000 M⁻¹ s⁻¹

B5: ABT2-65-17 (other)
VH: EVQLLESGGGLVQPGGSLRLSCVASGFTFEDYQMGWVRQAPGKGLEWVSSISAMGNRTYYADSVKGRFTISRDDSKNTLYLQMNSLRAEDTAVYYCAQNLVRLGRSRWMFDYWGQGTLVTVSS
- MRC5 ND50 [7]: 2 nM

B6: ABT2-65-166 (other)
VH: EVQLLESGGGLVQPGGSLRLSCAASGFTFEDYQMGWVRQAPGKGLEWVSSISAMGGRTYYADSVKGRFTISRDNSKNTLYLQMNSLRAEDTAVYYCAQNLVRLGRSRWMFDYWGQGTLVTVSS
- MRC5 ND50 [7]: 4 nM

B7: ABT1-95 (other)
VL: DIQMTQSPSSLSASVGDRVTITCRASQPIHGNLRWYQQKPGKAPKLLIYNISNLQSGVPSRFSGSGSGTDFTLTISSLQPEDFATYYCQQGYRWPVTFGQGTKVEIKR
notes: dAb, Vκ, to IL-1α; also called dAb ABT1-95
- Kd [9]: 200 nM
- Kd [10]: 45 nM
- koff [10]: 0.022 s⁻¹
- kon [10]: 490000 M⁻¹ s⁻¹
- MRC5 ND10 [3]: 150 nM
- MRC5 ND50 [3]: 700 nM

B8: ABT2-108-620x/ABT1-95-15 huIgG1/K wt (bispecific antibody, V domains shown)
VH: EVQLLESGGGLVQPGGSLRLSCAASGFTFAEESWMWVRQAPGKGLEWVSRIGQDGKNTYYREDVKGRFTISRDNSKNTLYLQMNSLRAEDTAVYYCAKYTGRIMGHHLFDYWGQGTLVTVSS
VL: DIQMTQSPSSLSASVGDRVTITCRASQPIVRNLRWYQQKPGKAPKLLIYSSSYLEPGVPSRFSGSGSGTDFTLTISSLQPEDFATYHCQQGYRWPVTFGQGTKVEIKR
- IL-1β IC50 [11]: 0.04 nM
- IL-1α IC50 [12]: 5 nM
- MRC-5 IL-1a inhibition assay EC50 [13]: 5.07 nM

B9: ABT1-95-13 (other)
VL: DIQMTQSPSSLSASVGDRVTITCRASQPIVRNLRWYQQKPGKAPKLLIYSSSYLERGVPSRFSGSGSGTDFTLTISSLQPEDFATYHCQQGYRWPVTFGQGTKVEIKR
notes: dAb, Vκ, to IL-1α
- Kd [14]: 0.95 nM
- ND50 [15]: 120 pM
- MRC5 ND50 [16]: 110 pM

From US20090291081A1 (AbbVie / Abbott, published 2009)
